Experimental findings from the supplement of paper PMC7125110 are described below.

B1: glmS ribozyme (parent)
chain: AUAAAAGCGCCAGAACUACAGAAAUGUAGUUGACGAGGAGGAGGUUUAUCGAAUUUUCGGCGGAUGCCUCCAAA

Common to all, as to conditions: with glucosamine-6-phosphate
Variants of B1 are the subject of series [1]. The series is described as follows: self-cleavage kobs at 640 uM GlcN6P; higher = faster cleavage; RNA array. In a few lines:
(§1)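 E. coli RNA polymerase transcribed barcoded ribozyme variants in situ on sequenced MiSeq chips, which were tracked via a hybridised Cy3 probe at 37 °C. Tiles were imaged over ~14 h after glucosamine-6-phosphate (40 μM to 10 mM) in HEPES/KCl/Mg(OAc)2 buffer was flowed in. Normalised per-tile medians were fit to one- or two-exponential decays for kobs, and kcat and KM came from weighted Michaelis–Menten fits.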

The variants in series [2] derive from B1. The series is described as follows: self-cleavage kobs at 2500 uM GlcN6P; higher = faster cleavage; RNA array. In a few lines:
as §1

In series [3] the parent is B1. The series is described as follows: self-cleavage kobs at 10000 uM GlcN6P; higher = faster cleavage; RNA array. In a few lines: as §1

± gives the standard error. This sample holds only a part of the variants without activity.

As to A15G C58A U69G, in series [1], the “self-cleavage kobs at 640 uM GlcN6P” value is 0.000122 ± 3.7e-05 s⁻¹. For the same variant, the “self-cleavage kobs at 2500 uM GlcN6P” value in series [2] was determined as 8.9e-05 ± 2.5e-05 s⁻¹. In the case of A14G A33U G44U U47C G63U, the “self-cleavage kobs at 640 uM GlcN6P” value in series [1] is < 1e-05 s⁻¹. Moreover, the “self-cleavage kobs at 2500 uM GlcN6P” value in series [2] was < 1e-05 s⁻¹. For the same variant, the “self-cleavage kobs at 10000 uM GlcN6P” value in series [3] is < 1e-05 s⁻¹. On to A36C G38A A53U C68G, for which the “self-cleavage kobs at 640 uM GlcN6P” value in series [1] amounted to 9.97e-05 ± 4.4e-05 s⁻¹. Take G13A C68G C71G: the “self-cleavage kobs at 640 uM GlcN6P” value in series [1] was found to be 0.000118 ± 5e-05 s⁻¹. Moreover, the “self-cleavage kobs at 2500 uM GlcN6P” value in series [2] was determined as 0.000141 ± 3.4e-05 s⁻¹.

For the variant G9U A12G A14C A53C, the “self-cleavage kobs at 640 uM GlcN6P” value in series [1] is < 1e-05 s⁻¹. Further, the “self-cleavage kobs at 2500 uM GlcN6P” value in series [2] was < 1e-05 s⁻¹.

On to U31C G41A G63C C68A, for which the “self-cleavage kobs at 640 uM GlcN6P” value in series [1] was < 1e-05 s⁻¹. For A42C A64U U69G, in series [1], the “self-cleavage kobs at 640 uM GlcN6P” value amounted to 4.76e-05 ± 1.2e-05 s⁻¹. Further, the “self-cleavage kobs at 2500 uM GlcN6P” value in series [2] was determined as 9.13e-05 ± 1.9e-05 s⁻¹. With G7U U45A A53G U56G, in series [1], the “self-cleavage kobs at 640 uM GlcN6P” value was < 1e-05 s⁻¹.

Regarding C10G G13U G41U U49G, in series [1], the “self-cleavage kobs at 640 uM GlcN6P” value was < 1e-05 s⁻¹. Consider G13A A15U G35U G40C, for which the “self-cleavage kobs at 640 uM GlcN6P” value in series [1] was < 1e-05 s⁻¹. As to C10U A52U C67A C68A U69G, the “self-cleavage kobs at 640 uM GlcN6P” value in series [1] amounted to 8.14e-05 ± 3.2e-05 s⁻¹.

Regarding A12U C68A, the “self-cleavage kobs at 640 uM GlcN6P” value in series [1] was determined as 7.24e-05 ± 3.4e-05 s⁻¹. Besides, the “self-cleavage kobs at 2500 uM GlcN6P” value in series [2] was 2.89e-05 ± 1.2e-05 s⁻¹.

In the case of U30C G32U G44A A48C U57A, the “self-cleavage kobs at 640 uM GlcN6P” value in series [1] is < 1e-05 s⁻¹. For the same variant, the “self-cleavage kobs at 2500 uM GlcN6P” value in series [2] is < 1e-05 s⁻¹. With G40C U54C U56A, in series [1], the “self-cleavage kobs at 640 uM GlcN6P” value was found to be 0.000313 ± 5.9e-05 s⁻¹. Also, in series [2], the “self-cleavage kobs at 2500 uM GlcN6P” value is 0.000505 ± 0.00011 s⁻¹. For A14U A36U U69G, the “self-cleavage kobs at 640 uM GlcN6P” value in series [1] amounted to 0.000169 ± 6.2e-05 s⁻¹. Moreover, the “self-cleavage kobs at 2500 uM GlcN6P” value in series [2] is 0.000194 ± 5.8e-05 s⁻¹. Further, the “self-cleavage kobs at 10000 uM GlcN6P” value in series [3] was 5.55e-05 ± 1.8e-05 s⁻¹. On to C11A U54A U55G G63U U65G, for which, in series [1], the “self-cleavage kobs at 640 uM GlcN6P” value was < 1e-05 s⁻¹. For A14C U56G U57A C71A, in series [1], the “self-cleavage kobs at 640 uM GlcN6P” value came out at 8.95e-05 ± 2.3e-05 s⁻¹. The “self-cleavage kobs at 2500 uM GlcN6P” value in series [2] came to 5.04e-05 ± 2e-05 s⁻¹. With G38U U56G C70A, in series [1], the “self-cleavage kobs at 640 uM GlcN6P” value worked out at 0.000333 ± 0.00015 s⁻¹. With A12U A42G C70G, the “self-cleavage kobs at 640 uM GlcN6P” value in series [1] is 0.000705 ± 0.00032 s⁻¹. The “self-cleavage kobs at 2500 uM GlcN6P” value in series [2] was determined as 0.00109 ± 0.00041 s⁻¹.

On to C58G C68A, for which the “self-cleavage kobs at 640 uM GlcN6P” value in series [1] came out at 0.000125 ± 3e-05 s⁻¹.

For G13U G32A C70A, the “self-cleavage kobs at 640 uM GlcN6P” value in series [1] was determined as 5.59e-05 ± 2.4e-05 s⁻¹. Besides, the “self-cleavage kobs at 2500 uM GlcN6P” value in series [2] came to 0.000106 ± 3.2e-05 s⁻¹. For the variant G9U A15C C67U, the “self-cleavage kobs at 640 uM GlcN6P” value in series [1] was < 1e-05 s⁻¹. In the case of A6U C8U A15U G32C C34A C61G, the “self-cleavage kobs at 640 uM GlcN6P” value in series [1] was < 1e-05 s⁻¹.

As to G29A U49A A53G C68A, the “self-cleavage kobs at 640 uM GlcN6P” value in series [1] is 7.05e-05 ± 2.9e-05 s⁻¹.

For G13A A53G G66A, the “self-cleavage kobs at 640 uM GlcN6P” value in series [1] stood at 6.41e-05 ± 2.2e-05 s⁻¹.

Regarding G9C A15G G38C G60A, the “self-cleavage kobs at 640 uM GlcN6P” value in series [1] is < 1e-05 s⁻¹. Moreover, the “self-cleavage kobs at 2500 uM GlcN6P” value in series [2] was < 1e-05 s⁻¹. For the variant G9C U31C C67U, the “self-cleavage kobs at 640 uM GlcN6P” value in series [1] was < 1e-05 s⁻¹. Also, the “self-cleavage kobs at 2500 uM GlcN6P” value in series [2] is < 1e-05 s⁻¹.

With A36U U56A, the “self-cleavage kobs at 640 uM GlcN6P” value in series [1] is < 1e-05 s⁻¹. The “self-cleavage kobs at 10000 uM GlcN6P” value in series [3] was < 1e-05 s⁻¹. On to A6C G9C G32A C50U A53G, for which, in series [1], the “self-cleavage kobs at 640 uM GlcN6P” value is < 1e-05 s⁻¹. Moreover, in series [2], the “self-cleavage kobs at 2500 uM GlcN6P” value was < 1e-05 s⁻¹. Consider G51A G63U U65A, for which, in series [1], the “self-cleavage kobs at 640 uM GlcN6P” value is < 1e-05 s⁻¹. For the variant G13U U56C G62U, the “self-cleavage kobs at 640 uM GlcN6P” value in series [1] is < 1e-05 s⁻¹. For the same variant, in series [2], the “self-cleavage kobs at 2500 uM GlcN6P” value was < 1e-05 s⁻¹. For the same variant, in series [3], the “self-cleavage kobs at 10000 uM GlcN6P” value is < 1e-05 s⁻¹. Turning to C11A G35A G63U A64C, the “self-cleavage kobs at 640 uM GlcN6P” value in series [1] is < 1e-05 s⁻¹. In addition, the “self-cleavage kobs at 2500 uM GlcN6P” value in series [2] is < 1e-05 s⁻¹.
